One assay concerns the target CA09 HA. Put plainly: BLI. Background: Biolayer interferometry detects binding as a change in optical thickness at a sensor tip.
The target in a further assay is PR34 HA. Put plainly: BLI.

As a reminder, the Kd is a measure of binding affinity in units of concentration. Higher therefore signals weaker binding. A word on the koff: it is the rate constant with which the complex falls apart. In the assay with CA09 HA, MEDI8852 gave a Kd of 0.502 nM and a koff of 0.000147 s⁻¹. In the assay with PR34 HA, this substance registered a Kd of 1.36 nM and a koff of 0.00023 s⁻¹.

Source of the values: PMC8201785.
